The target in this assay is full-length mouse IGF1R (MmIGF1R), residues 1–1262, Y951A, D1107N (mouse) (UniProt Q60751). In words: cryo-EM structure; purified MmIGF1R and HsIGF1 mixed at molar ratio 1:2, 1 h at 4 °C, complex purified by SEC in 20 mM Hepes-Na pH 7.4, 200 mM NaCl, 0.03% DDM; 4.3 Å.

The values that follow come from publication PMC6783537.

Chain of full-length mouse IGF1R (MmIGF1R), residues 1–1262, Y951A, D1107N (mouse) (Q60751 31-1292 Y981A/D1137N): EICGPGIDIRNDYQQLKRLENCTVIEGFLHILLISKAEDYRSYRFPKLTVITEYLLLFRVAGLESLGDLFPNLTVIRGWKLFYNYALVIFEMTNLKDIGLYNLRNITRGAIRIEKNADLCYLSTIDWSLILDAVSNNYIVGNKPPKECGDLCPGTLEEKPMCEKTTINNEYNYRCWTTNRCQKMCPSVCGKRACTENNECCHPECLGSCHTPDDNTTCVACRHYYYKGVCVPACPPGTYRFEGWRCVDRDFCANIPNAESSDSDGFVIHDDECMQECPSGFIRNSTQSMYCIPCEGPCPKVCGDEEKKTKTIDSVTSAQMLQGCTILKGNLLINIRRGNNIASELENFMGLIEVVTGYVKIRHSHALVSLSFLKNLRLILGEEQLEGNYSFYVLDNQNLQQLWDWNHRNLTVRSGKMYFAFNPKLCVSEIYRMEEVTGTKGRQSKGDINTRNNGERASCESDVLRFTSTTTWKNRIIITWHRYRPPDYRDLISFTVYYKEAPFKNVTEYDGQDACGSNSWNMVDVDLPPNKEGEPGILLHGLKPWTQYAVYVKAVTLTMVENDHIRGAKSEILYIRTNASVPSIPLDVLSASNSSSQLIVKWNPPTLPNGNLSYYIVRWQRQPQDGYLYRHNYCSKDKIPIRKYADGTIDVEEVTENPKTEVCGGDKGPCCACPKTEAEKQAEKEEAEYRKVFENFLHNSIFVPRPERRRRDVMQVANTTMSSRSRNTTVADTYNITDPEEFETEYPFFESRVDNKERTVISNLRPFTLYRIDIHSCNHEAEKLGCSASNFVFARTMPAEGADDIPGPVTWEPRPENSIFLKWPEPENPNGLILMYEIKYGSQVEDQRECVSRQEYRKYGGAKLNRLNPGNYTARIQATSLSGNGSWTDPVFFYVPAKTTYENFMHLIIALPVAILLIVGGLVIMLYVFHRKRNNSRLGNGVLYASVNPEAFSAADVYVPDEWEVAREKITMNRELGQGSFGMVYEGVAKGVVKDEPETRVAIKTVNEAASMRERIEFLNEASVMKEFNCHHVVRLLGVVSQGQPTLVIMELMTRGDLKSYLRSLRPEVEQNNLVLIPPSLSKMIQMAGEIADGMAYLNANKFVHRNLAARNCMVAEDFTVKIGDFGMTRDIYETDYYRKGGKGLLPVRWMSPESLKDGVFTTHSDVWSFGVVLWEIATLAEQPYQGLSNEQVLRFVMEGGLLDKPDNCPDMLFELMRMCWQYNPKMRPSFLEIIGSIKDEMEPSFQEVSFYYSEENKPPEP

“human IGF1 (HsIGF1), mature, residues 49–118 (ligand)”: the stoichiometry N (IGF1 per IGF1R dimer) was 1.
